The values below come from patent US20240317859A1 (FOUNDATION FOR BIOMEDICAL RESEARCH AND INNOVATION AT KOBE, published 2024).

Where two headings read alike, the source gives them in different places. A value given as a limit tells only on which side of the number the result lay.

The target of assay [1] is T1, human PD-1 (wild-type), expressed on cells (human, UniProt Q15116 25-288). Description: cell-based or functional assay.
Assay [2] deals with Human PD-1/PDCD1 Protein (PD-1) (human, UniProt Q15116 25-167, limits assumed). Description: SPR, Biacore 8K; PD-1 captured by anti-His antibody, antibody in flow. On the procedure: The binding affinity of each antibody to human PD-1 was measured with Biacore 8K (Cytiva). Briefly, anti-His Tag antibody was immobilized by amine coupling using Amine Coupling Kit and His Capture Kit, onto 8 channels of a sensor chip (provided with 16 flow cells; one channel consisting of two flow cells) which had carboxymethyl dextran immobilized on a gold film. The immobilization was performed by feeding an activation solution (NHS and EDC mixed in equal amounts) at a flow rate of 10 μl/min for 7 minutes, an immobilization solution at a flow rate of 5 μl/min for 7 minutes, and 1 M ethanolamine hydrochloride-NaOH (pH 8.5) at a flow rate of 10 μl/min for 7 minutes. The buffer used at the time of immobilization was 1×HBS-EP+ Buffer. After the immobilization and before applying a sample, Human PD-1/PDCD1 Protein (PD-1) adjusted to 1 μg/ml with 1×HBS-EP+ Buffer was fed to one of the two flow cells of each channel in an amount of 20 μl at a flow rate of 10 μl/min to thereby capture PD-1 on the sensor chip. As regards the other flow cell, 1×HBS-EP+ Buffer was fed in the same manner to prepare a control flow cell. Each antibody was adjusted to 16 nM with 1×HBS-EP+ Buffer, and then subjected to 2-fold 7-step serial dilution using 1×HBS-EP+ Buffer. The resultant sample solution (30 μl) was fed to each flow cell at a flow rate of 10 μl/min and the response was measured. After subtracting the response of control flow cell from the response of the flow cell which was allowed to capture the ligand, KD value was calculated by curve fitting using Biacore 8K Evaluation Software.

Assay [3] has as its target T1, human PD-1 (wild-type), expressed on …. Description: cell-based or functional assay. This is another data set of the same source.

T1 sequence (Q15116 25-288 limits assumed): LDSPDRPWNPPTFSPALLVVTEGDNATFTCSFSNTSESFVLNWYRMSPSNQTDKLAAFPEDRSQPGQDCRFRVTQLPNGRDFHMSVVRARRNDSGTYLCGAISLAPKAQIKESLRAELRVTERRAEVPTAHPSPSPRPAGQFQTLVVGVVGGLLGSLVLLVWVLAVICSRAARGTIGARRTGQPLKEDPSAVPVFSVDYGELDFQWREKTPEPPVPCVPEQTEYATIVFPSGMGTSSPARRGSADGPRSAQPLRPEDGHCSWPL
Human PD-1/PDCD1 Protein (PD-1), sequence (Q15116 25-167 limits assumed): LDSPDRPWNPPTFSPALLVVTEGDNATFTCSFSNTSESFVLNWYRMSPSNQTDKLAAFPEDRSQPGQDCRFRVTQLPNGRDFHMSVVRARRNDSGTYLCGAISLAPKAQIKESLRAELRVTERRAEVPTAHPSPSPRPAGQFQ

B1: HM297-G5 (antibody, human IgG1, V domains shown)
VH: QVQLVQSGPEVKKPGASVKIPCKASGYTFTDYNVDWVRQVPGQGLEWIGDIDPNNGGTIYNQKFKDKATLTVDKSTRTAYMELRSLRSDDTAVYYCARWRGAMDYWGQGTLVTVSS
VL: DIQMTQSPSSLSASVGDRVTITCRASQDIDNYLKWYQQKPDGTVKLLIYDTSRLHSGVPSRFSGSGSGTDYTLTISSLKQEDFATYYCQQGYTLPWTFGQGTKLEIK
notes: also called humanized HM297, VH ver.G / VL ver.5
One may read the Kd as the free concentration of one partner at which half of the binding sites on the other are occupied at equilibrium, for simple one-to-one binding. Consider B1, for which the “Cell-cell contact assay” value in assay [1] came to 102 ng/mL. The same molecule came in with a dissociation constant (Kd) in assay [2] of 0.232 nM.

B2: humanized HM297-H5-IgG1-K322A (antibody, V domains shown)
VH: QVQLVQSGPEVKKPGASVKIPCKASGYTFTDYNVDWVRQVPGQGLEWMGDIDPNNGGTIYNQKFKDRVTMTVDKSTRTAYMELRSLRSDDTAVYYCARWRGAMDYWGQGTLVTVSS
VL: DIQMTQSPSSLSASVGDRVTITCRASQDIDNYLKWYQQKPDGTVKLLIYDTSRLHSGVPSRFSGSGSGTDYTLTISSLKQEDFATYYCQQGYTLPWTFGQGTKLEIKR
For B2, the “Cell-cell contact assay” value in assay [1] was determined as 96.4 ng/mL. In assay [2], this molecule showed an equilibrium dissociation constant (Kd) of 0.563 nM.

B3: HM297-F6 (antibody, human IgG1, V domains shown)
VH: QVQLVQSGPEVKKPGASVKIPCKASGYTFTDYNVDWVRQSHGKSLEWIGDIDPNNGGTIYNQKFKDRVTMTVDKSTRTAYMELRSLRSDDTAVYYCARWRGAMDYWGQGTLVTVSS
VL: DIQMTQSPSSLSASVGDRVTITCRASQDIDNYLKWYQQKPGKAPKLLIYDTSRLHSGVPSRFSGSGSGTDYTLTISSLQPEDFATYYCQQGYTLPWTFGQGTKLEIK
notes: also called humanized HM297, VH ver.F / VL ver.6
For the molecule B3, in assay [1], the “Cell-cell contact assay” value was determined as 150 ng/mL. For the same molecule, the affinity in assay [2], expressed as Kd, was 4.83 nM.

B4: HM297-I6 (antibody, human IgG1, V domains shown)
VH: QVQLVQSGPEVKKPGASVKVVCKASGYTFTDYNVDWVRQVPGQGLEWMGDIDPNNGGTIYNQKFKDRVTMTVDTSTRTAYMELRSLRSDDTAVYYCARWRGAMDYWGQGTLVTVSS
VL: DIQMTQSPSSLSASVGDRVTITCRASQDIDNYLKWYQQKPGKAPKLLIYDTSRLHSGVPSRFSGSGSGTDYTLTISSLQPEDFATYYCQQGYTLPWTFGQGTKLEIK
notes: also called humanized HM297, VH ver.I / VL ver.6
For B4, the “Cell-cell contact assay” value in assay [1] worked out at 137 ng/mL. This molecule yielded a Kd in assay [2] of 3.48 nM.

B5: HM297-I5 (antibody, human IgG1, V domains shown)
VH: QVQLVQSGPEVKKPGASVKVVCKASGYTFTDYNVDWVRQVPGQGLEWMGDIDPNNGGTIYNQKFKDRVTMTVDTSTRTAYMELRSLRSDDTAVYYCARWRGAMDYWGQGTLVTVSS
VL: DIQMTQSPSSLSASVGDRVTITCRASQDIDNYLKWYQQKPDGTVKLLIYDTSRLHSGVPSRFSGSGSGTDYTLTISSLKQEDFATYYCQQGYTLPWTFGQGTKLEIK
notes: also called humanized HM297, VH ver.I / VL ver.5
On to B5, for which, in assay [1], the “Cell-cell contact assay” value was 94.9 ng/mL. The Kd in assay [2] was 2.2 nM.

B6: HM297-E6 (antibody, human IgG1, V domains shown)
VH: QVQLVQSGPELVKPGASVKIPCKASGYTFTDYNVDWVRQSHGKSLEWIGDIDPNNGGTIYNQKFKDKATLTVDKSTRTAYMELRSLRSDDTAVYYCARWRGAMDYWGQGTLVTVSS
VL: DIQMTQSPSSLSASVGDRVTITCRASQDIDNYLKWYQQKPGKAPKLLIYDTSRLHSGVPSRFSGSGSGTDYTLTISSLQPEDFATYYCQQGYTLPWTFGQGTKLEIK
notes: also called humanized HM297, VH ver.E / VL ver.6
Take B6: the “Cell-cell contact assay” value in assay [1] was found to be 65.4 ng/mL. Also, the Kd in assay [2] came out at 12.6 nM.

B7: HM297-F4 (antibody, human IgG1, V domains shown)
VH: QVQLVQSGPEVKKPGASVKIPCKASGYTFTDYNVDWVRQSHGKSLEWIGDIDPNNGGTIYNQKFKDRVTMTVDKSTRTAYMELRSLRSDDTAVYYCARWRGAMDYWGQGTLVTVSS
VL: DIQMTQTTSSLSASVGDRVTITCRASQDIDNYLKWYQQKPDGTVKLLIYDTSRLHSGVPSRFSGSGSGTDYTLTISSLKQEDFATYYCQQGYTLPWTFGQGTKLEIK
notes: also called humanized HM297, VH ver.F / VL ver.4
Take B7: in assay [1], the “Cell-cell contact assay” value was 92.3 ng/mL. Further, the Kd in assay [2] worked out at 24.1 nM.

B8: HM297-H6 (antibody, human IgG1, V domains shown)
VH: QVQLVQSGPEVKKPGASVKIPCKASGYTFTDYNVDWVRQVPGQGLEWMGDIDPNNGGTIYNQKFKDRVTMTVDKSTRTAYMELRSLRSDDTAVYYCARWRGAMDYWGQGTLVTVSS
VL: DIQMTQSPSSLSASVGDRVTITCRASQDIDNYLKWYQQKPGKAPKLLIYDTSRLHSGVPSRFSGSGSGTDYTLTISSLQPEDFATYYCQQGYTLPWTFGQGTKLEIK
notes: also called humanized HM297, VH ver.H / VL ver.6
As to B8, in assay [1], the “Cell-cell contact assay” value stood at 141 ng/mL. In assay [2], the Kd came out at 1.86 nM.

B9: HM297-G4 (antibody, human IgG1, V domains shown)
VH: QVQLVQSGPEVKKPGASVKIPCKASGYTFTDYNVDWVRQVPGQGLEWIGDIDPNNGGTIYNQKFKDKATLTVDKSTRTAYMELRSLRSDDTAVYYCARWRGAMDYWGQGTLVTVSS
VL: DIQMTQTTSSLSASVGDRVTITCRASQDIDNYLKWYQQKPDGTVKLLIYDTSRLHSGVPSRFSGSGSGTDYTLTISSLKQEDFATYYCQQGYTLPWTFGQGTKLEIK
notes: also called humanized HM297, VH ver.G / VL ver.4
For B9, the “Cell-cell contact assay” value in assay [1] came out at 55.4 ng/mL. In assay [2], this molecule had a Kd of 0.451 nM.

B10: HM297-H4 (antibody, human IgG1, V domains shown)
VH: QVQLVQSGPEVKKPGASVKIPCKASGYTFTDYNVDWVRQVPGQGLEWMGDIDPNNGGTIYNQKFKDRVTMTVDKSTRTAYMELRSLRSDDTAVYYCARWRGAMDYWGQGTLVTVSS
VL: DIQMTQTTSSLSASVGDRVTITCRASQDIDNYLKWYQQKPDGTVKLLIYDTSRLHSGVPSRFSGSGSGTDYTLTISSLKQEDFATYYCQQGYTLPWTFGQGTKLEIK
notes: also called humanized HM297, VH ver.H / VL ver.4
On to B10, for which, in assay [1], the “Cell-cell contact assay” value is 185 ng/mL. In assay [2], this molecule registered a dissociation constant Kd of 0.221 nM.

B11: HM297-I4 (antibody, human IgG1, V domains shown)
VH: QVQLVQSGPEVKKPGASVKVVCKASGYTFTDYNVDWVRQVPGQGLEWMGDIDPNNGGTIYNQKFKDRVTMTVDTSTRTAYMELRSLRSDDTAVYYCARWRGAMDYWGQGTLVTVSS
VL: DIQMTQTTSSLSASVGDRVTITCRASQDIDNYLKWYQQKPDGTVKLLIYDTSRLHSGVPSRFSGSGSGTDYTLTISSLKQEDFATYYCQQGYTLPWTFGQGTKLEIK
notes: also called humanized HM297, VH ver.I / VL ver.4
B11: in assay [1], the “Cell-cell contact assay” value came to 65.6 ng/mL. Besides, the Kd in assay [2] was determined as 4.84 nM.

B12: HM297-G6 (antibody, human IgG1, V domains shown)
VH: QVQLVQSGPEVKKPGASVKIPCKASGYTFTDYNVDWVRQVPGQGLEWIGDIDPNNGGTIYNQKFKDKATLTVDKSTRTAYMELRSLRSDDTAVYYCARWRGAMDYWGQGTLVTVSS
VL: DIQMTQSPSSLSASVGDRVTITCRASQDIDNYLKWYQQKPGKAPKLLIYDTSRLHSGVPSRFSGSGSGTDYTLTISSLQPEDFATYYCQQGYTLPWTFGQGTKLEIK
notes: also called humanized HM297, VH ver.G / VL ver.6
Regarding B12, the “Cell-cell contact assay” value in assay [1] worked out at 59.7 ng/mL. Besides, the Kd in assay [2] is 1.89 nM.

B13: HM297-E4 (antibody, human IgG1, V domains shown)
VH: QVQLVQSGPELVKPGASVKIPCKASGYTFTDYNVDWVRQSHGKSLEWIGDIDPNNGGTIYNQKFKDKATLTVDKSTRTAYMELRSLRSDDTAVYYCARWRGAMDYWGQGTLVTVSS
VL: DIQMTQTTSSLSASVGDRVTITCRASQDIDNYLKWYQQKPDGTVKLLIYDTSRLHSGVPSRFSGSGSGTDYTLTISSLKQEDFATYYCQQGYTLPWTFGQGTKLEIK
notes: also called humanized HM297, VH ver.E / VL ver.4
Turning to B13, the “Cell-cell contact assay” value in assay [1] was found to be 100 ng/mL. This molecule also showed a Kd in assay [2] of 0.129 nM.

B14: HM297-E5 (antibody, human IgG1, V domains shown)
VH: QVQLVQSGPELVKPGASVKIPCKASGYTFTDYNVDWVRQSHGKSLEWIGDIDPNNGGTIYNQKFKDKATLTVDKSTRTAYMELRSLRSDDTAVYYCARWRGAMDYWGQGTLVTVSS
VL: DIQMTQSPSSLSASVGDRVTITCRASQDIDNYLKWYQQKPDGTVKLLIYDTSRLHSGVPSRFSGSGSGTDYTLTISSLKQEDFATYYCQQGYTLPWTFGQGTKLEIK
notes: also called humanized HM297, VH ver.E / VL ver.5
As to B14, the “Cell-cell contact assay” value in assay [1] stood at 78.6 ng/mL. This molecule also returned a Kd in assay [2] of 50.2 nM.

B15: HM297-F5 (antibody, human IgG1, V domains shown)
VH: QVQLVQSGPEVKKPGASVKIPCKASGYTFTDYNVDWVRQSHGKSLEWIGDIDPNNGGTIYNQKFKDRVTMTVDKSTRTAYMELRSLRSDDTAVYYCARWRGAMDYWGQGTLVTVSS
VL: DIQMTQSPSSLSASVGDRVTITCRASQDIDNYLKWYQQKPDGTVKLLIYDTSRLHSGVPSRFSGSGSGTDYTLTISSLKQEDFATYYCQQGYTLPWTFGQGTKLEIK
notes: also called humanized HM297, VH ver.F / VL ver.5
In the case of B15, the “Cell-cell contact assay” value in assay [1] came out at 98.9 ng/mL. Besides, in assay [2], binding was characterised by a dissociation constant (Kd) of 2.35 nM.

B16: chimeric HM297-IgG1-K322A (antibody)
heavy: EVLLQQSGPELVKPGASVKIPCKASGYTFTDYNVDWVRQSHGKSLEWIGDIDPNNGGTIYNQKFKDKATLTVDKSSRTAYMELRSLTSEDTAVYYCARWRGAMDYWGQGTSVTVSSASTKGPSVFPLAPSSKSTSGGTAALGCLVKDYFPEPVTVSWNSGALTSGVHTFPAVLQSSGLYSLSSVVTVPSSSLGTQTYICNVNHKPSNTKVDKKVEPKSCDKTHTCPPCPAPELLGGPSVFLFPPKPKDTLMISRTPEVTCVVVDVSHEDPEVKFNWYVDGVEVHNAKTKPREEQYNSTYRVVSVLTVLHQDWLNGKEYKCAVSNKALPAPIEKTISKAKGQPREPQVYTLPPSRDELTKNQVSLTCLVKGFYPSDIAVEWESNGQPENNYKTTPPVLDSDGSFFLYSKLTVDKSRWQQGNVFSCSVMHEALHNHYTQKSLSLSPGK
light: DVQMTQTTSSLSASLGDRVTISCRASQDIDNYLKWYQQKPDGTVKLLIYDTSRLHSGVPSRFSGSGSGTDYSLTISNLKQEDIATYFCQQGYTLPWTFGGGTRLEIKRTVAAPSVFIFPPSDEQLKSGTASVVCLLNNFYPREAKVQWKVDNALQSGNSQESVTEQDSKDSTYSLSSTLTLSKADYEKHKVYACEVTHQGLSSPVTKSFNRGEC
notes: Mouse Fab region with the Fc region of human IgG1-K322A
B16: the “Cell-cell contact assay” value in assay [1] amounted to 78.3 ng/mL. In assay [2], this molecule yielded a Kd of 0.0493 nM.

B17: HM242-C1 (antibody, human IgG1, V domains shown)
VH: QVQLVQSGPEVKKPGASVKVVCKASGYTFTSYYIQWVKQRPGQGLEWIGWIYPGDGTTKYNEKFKGRVTMTIDKSTRTAYMELRSLRSDDTAVYYCASYYGSYFDYWGQGTLVTVSS
VL: DIQMTQTTSSLSASVGDRVTITCRASQDISNYLNWYQQKPDGTVTLLIYYTSKLHSGVPSRFSGSGSGTDYTLTISSLEQKDFATYYCQQSSTLPFTFGQGTKLEIK
notes: also called humanized HM242, VH ver.C / VL ver.1
The molecule B17 had a Kd in assay [2] of less than 0.0179 nM. The “Cell-cell contact assay” value in assay [3] is 19 ng/mL.
